Experimental data: patent WO2018134389A1
Where two headings read alike, the source gives them in different places.

What was measured:
[1] = molecular target: DC-SIGN ECD immobilised on a streptactin-functionalised SPR surface (human) (UniProt Q9NNX6)
[2] = molecular target: DC-SIGN ECD immobilised on a streptactin-functionalised SPR surface (human) (UniProt Q9NNX6); remark: listed apart in the source

Sequence of DC-SIGN ECD immobilised on a streptactin-functionalised SPR surface (human) (Q9NNX6 59-404): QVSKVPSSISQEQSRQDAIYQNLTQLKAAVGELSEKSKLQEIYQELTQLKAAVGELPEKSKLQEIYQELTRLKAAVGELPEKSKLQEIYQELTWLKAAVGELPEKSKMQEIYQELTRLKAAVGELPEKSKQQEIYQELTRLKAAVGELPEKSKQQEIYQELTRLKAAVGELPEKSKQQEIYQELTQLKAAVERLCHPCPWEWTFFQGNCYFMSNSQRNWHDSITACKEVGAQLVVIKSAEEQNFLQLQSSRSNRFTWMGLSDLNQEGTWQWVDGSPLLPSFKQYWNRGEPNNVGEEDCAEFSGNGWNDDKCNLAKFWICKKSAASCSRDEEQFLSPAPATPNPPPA
Sequence of HCMV gB treated with a(1-2,3,6)-mannosidase (P13201 25-907 limits assumed): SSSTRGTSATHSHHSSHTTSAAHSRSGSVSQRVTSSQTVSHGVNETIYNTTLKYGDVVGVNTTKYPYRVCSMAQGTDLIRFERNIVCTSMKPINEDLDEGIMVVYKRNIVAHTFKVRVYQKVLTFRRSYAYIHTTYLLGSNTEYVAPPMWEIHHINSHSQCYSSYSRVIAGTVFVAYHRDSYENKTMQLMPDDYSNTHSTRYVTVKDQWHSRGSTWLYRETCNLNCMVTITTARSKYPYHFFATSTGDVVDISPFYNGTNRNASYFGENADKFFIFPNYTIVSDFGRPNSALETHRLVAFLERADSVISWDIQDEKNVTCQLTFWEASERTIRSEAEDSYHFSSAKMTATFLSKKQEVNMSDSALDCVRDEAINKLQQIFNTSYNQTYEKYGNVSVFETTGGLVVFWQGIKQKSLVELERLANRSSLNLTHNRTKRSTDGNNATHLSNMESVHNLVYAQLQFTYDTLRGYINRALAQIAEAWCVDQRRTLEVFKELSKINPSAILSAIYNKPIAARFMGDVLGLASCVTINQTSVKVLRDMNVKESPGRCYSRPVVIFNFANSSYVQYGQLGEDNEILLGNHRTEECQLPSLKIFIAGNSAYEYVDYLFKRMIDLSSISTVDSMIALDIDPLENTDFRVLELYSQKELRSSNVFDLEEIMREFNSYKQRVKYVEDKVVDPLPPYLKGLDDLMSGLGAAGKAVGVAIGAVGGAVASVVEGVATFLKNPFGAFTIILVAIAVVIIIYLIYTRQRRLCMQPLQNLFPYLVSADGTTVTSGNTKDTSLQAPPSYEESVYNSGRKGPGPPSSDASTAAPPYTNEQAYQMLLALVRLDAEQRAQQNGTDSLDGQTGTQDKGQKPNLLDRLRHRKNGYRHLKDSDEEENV
Sequence of CHO-derived recombinant CMV glycoprotein B (soluble recombinant HCMV gB), untreated (P13201 25-907 limits assumed): as above

## CHO-derived recombinant CMV glycoprotein B (soluble recombinant HCMV gB), untreated (from UniProt P13201 25-907) (ligand)
[1]
  Kd: 0.014 nM

## HCMV gB treated with a(1-2,3,6)-mannosidase (from UniProt P13201 25-907) (ligand)
[2]
  Kd: 0.149 nM
